Our source for the Bioassay (% inhibition) of TGFβ1 activity: growth of MV-1-Lu cells, TGFβ1 200 pg/ml, peptide 200 µg/ml, peptide concentration and Cytometry (% inhibition) values is US20070014767A1.

For assay [1], the target named is TGFβ1 (human recombinant) (human) (UniProt P01137). Put plainly: cell-based or functional assay.
Assay [2] shares this target. Put plainly: affinity labelling of MV-1-Lu cells with 125I-TGFβ1, titration of P144. Conditions: scale: times the molar concentration of 125I-TGFβ1.
For assay [3] the target is unchanged. The assay can be described thus: flow cytometry; inhibition of binding of TGFβ1-biotin to MV-1-Lu cell receptors, peptide 420 µg/ml, peptide incubated with TGFβ1-biotin.
The target in assay [4] is TGFβ1 cell receptors on MV-1-Lu cells (mink). The assay can be described thus: cell-based or functional assay.
The target is the same in assay [5]. Put plainly: flow cytometry; inhibition of binding of TGFβ1-biotin to MV-1-Lu cell receptors, peptide 420 µg/ml, peptide incubated with the cells.

TGFβ1 (human recombinant) (human), sequence (P01137 279-390 limits assumed): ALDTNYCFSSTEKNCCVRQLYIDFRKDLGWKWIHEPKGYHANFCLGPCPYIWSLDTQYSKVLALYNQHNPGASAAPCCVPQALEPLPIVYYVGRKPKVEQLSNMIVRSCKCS

peptide P144(729-742): in assay [1], the Bioassay (% inhibition) of TGFβ1 activity: growth of MV-1-Lu cells, TGFβ1 200 pg/ml, peptide 200 µg/ml was found to be 88%. In addition, the peptide concentration at which inhibition of 125I-TGFβ1 binding to the cell receptors is lost in assay [2] came to 200000. In assay [3], the Cytometry (% inhibition) turned out to be 80%.
FCLGPCPYIWSLDTA [peptide P12(322-335)] came in with a Bioassay (% inhibition) of TGFβ1 activity: growth of MV-1-Lu cells, TGFβ1 200 pg/ml, peptide 200 µg/ml in assay [4] of 96%. For the same molecule, the Cytometry (% inhibition) in assay [5] is 77%.
In assay [4], HEPKGYHANFCLGPCPYIWSLDT [peptide P29(313-335)] came in with a Bioassay (% inhibition) of TGFβ1 activity: growth of MV-1-Lu cells, TGFβ1 200 pg/ml, peptide 200 µg/ml of 77.6%. The Cytometry (% inhibition) in assay [5] came to 92.3%.
On to HANFCLGPCPYIWSLA [peptide P11(319-333)], for which the Bioassay (% inhibition) of TGFβ1 activity: growth of MV-1-Lu cells, TGFβ1 200 pg/ml, peptide 200 µg/ml in assay [4] was determined as 40%. The Cytometry (% inhibition) in assay [5] was 86%.
LYNQHNPGASAAPCCA [peptide P18(343-358)] had a Bioassay (% inhibition) of TGFβ1 activity: growth of MV-1-Lu cells, TGFβ1 200 pg/ml, peptide 200 µg/ml in assay [4] of 18.2%. This molecule also displayed a Cytometry (% inhibition) in assay [5] of 6.5%.
